The target of assay [1] is actinorhodopsin (ActR, ActRL06) from Nanopelagicus ca., produced in E. coli (Nanopelagicus ca.). Put plainly: SEC; analytical size-exclusion chromatography of ActR at low pH. (In gel filtration, larger molecules generally elute earlier.)
For assay [2] the target is unchanged. The assay can be described thus: negative stain electron microscopy; ActR from E. coli, purified through the metal affinity step, in elution buffer with DDM, pH 7.4, 8-240 ug/mL on grids, 2% uranyl acetate; preliminary single particle analysis.
Assay [3] has the same target. Put plainly: SEC; analytical size-exclusion chromatography of ActR at the neutral pH of the scramblase assays.

Values joined by “and” are separate entries in the source; they are usually repeats but may differ in a detail not shown here. Equal entries are not always repeated.

“actinorhodopsin (ActR, ActRL06) from Nanopelagicus ca., produced in E. coli (natural protein)”: the stoichiometry N – broadly, the number of molecules, sites or subunits per partner or assembly – in assay [1] is 3; in assay [2], 5; in assay [3], 5 and 3.
